These results are taken from patent US6852509 (dated 2005).

For the assay, the target named is T1, wild-type p53 protein (UniProt P04637 1-393).
T1 construct: also called purified p53
The assay is described as follows: ELISA on plates coated with purified p53. An excerpt: The two IgGs are then visualized using a secondary anti-IgG antibody which is coupled to alkaline phosphatase. The biotinylated serum is visualized using extravidin which is coupled to alkaline phosphatase. The ScFvs are visualized using the anti-myc antibody 9E10 and then using an anti-IgG antibody which is coupled to alkaline phosphatase.

T1 sequence (P04637 whole entry): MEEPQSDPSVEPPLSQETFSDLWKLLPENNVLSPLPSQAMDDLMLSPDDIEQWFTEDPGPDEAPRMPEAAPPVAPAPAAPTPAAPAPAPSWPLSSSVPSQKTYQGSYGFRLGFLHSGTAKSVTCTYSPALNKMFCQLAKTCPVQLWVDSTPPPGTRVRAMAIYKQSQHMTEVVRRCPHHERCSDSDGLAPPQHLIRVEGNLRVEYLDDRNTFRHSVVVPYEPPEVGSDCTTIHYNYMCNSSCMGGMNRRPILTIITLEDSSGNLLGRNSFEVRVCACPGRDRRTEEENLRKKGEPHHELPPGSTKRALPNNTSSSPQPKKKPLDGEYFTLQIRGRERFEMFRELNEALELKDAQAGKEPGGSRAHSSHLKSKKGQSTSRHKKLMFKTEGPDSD

B1: ScFv 421-myc (scFv)
scFv: QVQLQQSGAELVRSGASVKLSCTASGFNIKDYYMHWVKQRPEQGLEWIGWIDPENGDTEYAPKFQGKATMTADTSSNTAYLQLSSLASEDTAVYYCNFYGDALDYWGQGTTVTVSSGGGGSGGGGSGGGGSDVLMTQTPLTLSVTIGQPASISCKSSQSLLDSDGKTYLNWLLQRPGQSPKRLIYLVSKLDSGVPDRFTGSGSGTDFTLKINRVEAEDLGVYYCWQGTHSPLTFGAGTKLEIK
notes: Produced from bacterial periplasm; not shown: myc tag fused for detection
Consider B1, for which the binding result was “binds”.

B2: ScFv 11D3-myc (scFv)
scFv: QVKLQESGAELVRSGASVNLSCTASGFNIKDYYMHWVKQRPEEGLEWIGYIDPESGETEYAPNFQGKATVTADTSSNTAYLHLSSLTSEDTTVYYCNAVIYYEYDGYALDYWGQGTTVTVSSGGGGSGGGGSGGGGSDIELTQSPSSLAVSAGEKVAMSCKSSQSLFNSRTRKNYLAWYQQKPGQSPKVLIYWASTRESGVPDRFTGSGSGTDFTLTISSVQAEDLAVYYCKQSYNLPTFGGGTKLEIK
notes: Produced from bacterial periplasm; also called 11D3 ScFv; D3M ScFv; not shown: myc tag fused for detection
As to B2, the binding result is “binds”.
